T1: His-HERC2 (amino acids 2540–2700) (human, UniProt O95714 2540-2700)
T1 construct: source: E. coli BL21-CodonPlus (DE3)-RIPL, purified (nickel–nitrilotriacetic acid beads, PD-10 desalting)
T1 sequence (looked up): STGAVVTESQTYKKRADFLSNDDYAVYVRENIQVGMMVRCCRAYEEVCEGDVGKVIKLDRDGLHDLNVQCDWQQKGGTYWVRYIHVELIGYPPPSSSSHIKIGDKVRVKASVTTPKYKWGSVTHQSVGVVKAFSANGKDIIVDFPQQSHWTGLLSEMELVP


Molecular target: T1, His-HERC2 (amino acids 2540–2700)
Assay: pull-down; GST-tagged proteins (2 μg) and His-HERC2 (amino acids 2540–2700) (2.8 μg) in 20 mM Tris–HCl pH 7.5, 150 mM NaCl, 0.1% Triton X-100, 1 mM DTT; Glutathione Sepharose beads, 1 h at 4 °C; gel stained with CBB
Conditions: both partners purified

binding result	Binder
binds	GST-NCOA4 (amino acids 383–522) C418S (domain or fragment, human, UniProt Q13772 383-522, looked up, C418S; Absorption at 330 and 420 nm not attenuated (Fe–S cluster kept); source: E. coli BL21-CodonPlus (DE3)-RIPL, purified (Glutathione Sepharose, PD-10 desalting)) SMVTEDWLVQNHQDPCKVEEVCRANEPCTSFAECVSDENCEKEALYKWLLKKEGKDKNGMPVEPKPEPEKHKDSLNMWLCPRKEVIEQTKAPKAMTPSRIADSFQVIKNSPLSEWLIRPPYKEGSPKEVPGTEDRAGKQK
binds	GST-NCOA4 (amino acids 383–522) WT (domain or fragment, human, UniProt Q13772 383-522, looked up, Vector pGEX6p-1; Bacteria were grown with Cys and FAC; the UV–visible spectrum resembles that of 2Fe–2S cluster proteins; also called glutathione S-transferase (GST)-fused NCOA4 (amino acids 383–522); source: E. coli BL21-CodonPlus (DE3)-RIPL, purified (Glutathione Sepharose, PD-10 desalting)) SMVTEDWLVQNHQDPCKVEEVCRANEPCTSFAECVCDENCEKEALYKWLLKKEGKDKNGMPVEPKPEPEKHKDSLNMWLCPRKEVIEQTKAPKAMTPSRIADSFQVIKNSPLSEWLIRPPYKEGSPKEVPGTEDRAGKQK

Source: article PMC10196804 (The Journal of Biological Chemistry, 2023)
